Laboratory results: article PMC7192592 (Nucleic Acids Research, 2020)
Residue numbers refer to the chain shown, from its start. Numbers in names are those of the source.

B1: TAMRA- or Cy5-labeled cGAS^FL (1:1 mixture of donor- and acceptor-labeled populations) (enzyme, human, UniProt Q8N884 2-522, looked up)
chain: QPWHGKAMQRASEAGATAPKASARNARGAPMDPTESPAAPEAALPKAGKFGPARKSGSRQKKSAPDTQERPPVRATGARAKKAPQRAQDTQPSDATSAPGAEGLEPPAAREPALSRAGSCRQRGARCSTKPRPPPGPWDVPSPGLPVSAPILVRRDAAPGASKLRAVLEKLKLSRDDISTAAGMVKGVVDHLLLRLKCDSAFRGVGLLNTGSYYEHVKISAPNEFDVMFKLEVPRIQLEEYSNTRAYYFVKFKRNPKENPLSQFLEGEILSASKMLSKFRKIIKEEINDIKDTDVIMKRKRGGSPAVTLLISEKISVDITLALESKSSWPASTQEGLRIQNWLSAKVRKQLRLKPFYLVPKHAKEGNGFQEETWRLSFSHIEKEILNNHGKSKTCCENKEEKCCRKDCLKLMKYLLEQLKERFKDKKHLDKFSSYHVKTAFFHVCTQNPQDSQWDRKDLGLCFDNCVTYFLQCLRTEKLENYFIPEFNLFSSNLIDKRSKEFLTKQIEYERNNEFPVFDEF
modifications: TAMRA or Cy5 label (site not stated)
B2: human full-length cGAS (cGAS^FL), wild-type (enzyme, UniProt Q8N884 2-522, looked up)
chain: B1 chain
B3: K173E/R176E-cGAS^FL (enzyme, human, UniProt Q8N884 2-522, looked up)
chain: B1 chain with K172E, R175E

Experiments:
[1] = molecular target: the molecule itself; test: FRET or BRET; donor- and acceptor-labeled cGAS^FL with 72-bp dsDNA, with or without Mn^2+ and/or Apcpp/Gpcpp (Supplementary Figure S2A)
[2] = molecular target: the molecule itself; test: SEC; size-exclusion chromatography of cGAS^FL variants (Supplementary Figure S2B)

Protein	binding result [1]	stoichiometry N [2]
B1	binds	
B2		2
B3		2
